{"source": "patent US20230174616A1", "about": "(UNIVERSITY OF SOUTHERN CALIFORNIA, published 2023)", "binders": {"B1": {"name": "[35S]-labeled SPAM peptide (in vitro translated) (peptide)", "peptide": "M(35S)PIFLDHILNKFWILHYAGSGSSGHHHHHHSS", "notes": "Translated in reticulocyte lysate; also called [35S]-SPAM; radiolabeled SPAM peptide"}, "B2": {"name": "SPAM D6A variant (peptide)", "peptide": "[Met(35S)]PIFLAHILNKFWILHYAGSGSSGHHHHHHSS", "notes": "in vitro translated alanine-scan variant"}, "B3": {"name": "SPAM F4A variant (peptide)", "peptide": "[Met(35S)]PIALDHILNKFWILHYAGSGSSGHHHHHHSS", "notes": "as for B2"}, "B4": {"name": "SPAM F12A variant (peptide)", "peptide": "[Met(35S)]PIFLDHILNKAWILHYAGSGSSGHHHHHHSS", "notes": "as for B2"}, "B5": {"name": "SPAM H7A variant (peptide)", "peptide": "[Met(35S)]PIFLDAILNKFWILHYAGSGSSGHHHHHHSS", "notes": "as for B2"}, "B6": {"name": "SPAM H16A variant (peptide)", "peptide": "[Met(35S)]PIFLDHILNKFWILAYAGSGSSGHHHHHHSS", "notes": "as for B2"}, "B7": {"name": "SPAM I3A variant (peptide)", "peptide": "M(35S)PAFLDHILNKFWILHYAGSGSSGHHHHHHSS", "notes": "as for B2"}, "B8": {"name": "SPAM I8A variant (peptide)", "peptide": "M(35S)PIFLDHALNKFWILHYAGSGSSGHHHHHHSS", "notes": "as for B2"}, "B9": {"name": "SPAM I14A variant (peptide)", "peptide": "[Met(35S)]PIFLDHILNKFWALHYAGSGSSGHHHHHHSS", "notes": "as for B2"}, "B10": {"name": "SPAM K11A variant (peptide)", "peptide": "M(35S)PIFLDHILNAFWILHYAGSGSSGHHHHHHSS", "notes": "as for B2"}, "B11": {"name": "SPAM L5A variant (peptide)", "peptide": "M(35S)PIFADHILNKFWILHYAGSGSSGHHHHHHSS", "notes": "as for B2"}, "B12": {"name": "SPAM L9A variant (peptide)", "peptide": "M(35S)PIFLDHIANKFWILHYAGSGSSGHHHHHHSS", "notes": "as for B2"}, "B13": {"name": "SPAM L15A variant (peptide)", "peptide": "M(35S)PIFLDHILNKFWIAHYAGSGSSGHHHHHHSS", "notes": "as for B2"}, "B14": {"name": "SPAM N10A variant (peptide)", "peptide": "M(35S)PIFLDHILAKFWILHYAGSGSSGHHHHHHSS", "notes": "as for B2"}, "B15": {"name": "SPAM P2A variant (peptide)", "peptide": "M(35S)AIFLDHILNKFWILHYAGSGSSGHHHHHHSS", "notes": "as for B2"}, "B16": {"name": "SPAM W13A variant (peptide)", "peptide": "M(35S)PIFLDHILNKFAILHYAGSGSSGHHHHHHSS", "notes": "as for B2"}, "B17": {"name": "mPD-1 (extracellular domain of mouse PD-1, L15 to S157, C83S, HA tag and His tag, expressed in E. coli) (receptor)", "chain": "MALEVPNGPWRSLTFYPAWLTVSEGANATFTCSLSNWSEDLMLNWNRLSPSNQTEKQAAFSNGLSQPVQDARFQIIQLPNRHDFHMNILDTRRNDSGIYLCGAISLHPKAKIEESPGAELVVTERILETSTRYPSGGYPYDVPDYALEHHHHHH", "notes": "also called HA-tagged mPD-1; murine variant of PD-1"}}, "key": {"[1]": {"target": "T1, hPD-L2* (recombinant glycosylated human PD-L2 ectodomain, L20-T220, expressed in Expi293F cells) (human, UniProt Q9BQ51 20-220, glycosylated; Avi tag biotinylated in vitro with BirA)", "T1 construct": "range 20-220", "T1 sequence": "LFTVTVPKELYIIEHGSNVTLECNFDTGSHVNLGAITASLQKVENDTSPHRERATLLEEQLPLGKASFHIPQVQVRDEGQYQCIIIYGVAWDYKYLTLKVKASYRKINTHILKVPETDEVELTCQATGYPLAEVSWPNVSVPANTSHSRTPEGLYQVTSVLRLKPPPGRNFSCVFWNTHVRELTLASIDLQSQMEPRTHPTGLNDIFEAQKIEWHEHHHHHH", "experiment": "radioactive pull-down of [35S]-labeled SPAM on immobilized target, normalized to hPD-L1 [cont.) D]"}, "[2]": {"target": "mPD-L1 (extracellular domain of mouse PD-L1, A18 to H239, expressed in E. coli, biotinylated) (mouse, biotin on the epsilon-amino group of the Avi tag lysine)", "sequence (chain, as listed by the source limits assumed)": "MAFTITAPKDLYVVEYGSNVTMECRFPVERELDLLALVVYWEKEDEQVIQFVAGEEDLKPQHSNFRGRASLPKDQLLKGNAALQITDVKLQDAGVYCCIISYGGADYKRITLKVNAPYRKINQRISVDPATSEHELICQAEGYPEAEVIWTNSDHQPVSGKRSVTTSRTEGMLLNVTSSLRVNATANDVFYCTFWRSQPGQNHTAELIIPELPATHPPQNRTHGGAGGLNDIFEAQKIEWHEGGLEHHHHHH", "experiment": "radioactive pull-down of [35S]-labeled SPAM on immobilized target, normalized to hPD-L1"}, "[3]": {"target": "T2, biotinylated hPD-L1 (extracellular domain of human PD-L1, Ala18 to Thr239, expressed in E. coli, … (human, biotin on the epsilon-amino group of the Avi tag lysine (BirA)))", "T2 construct": "also called recombinant hPD-L1; non-glycosylated hPD-L1", "experiment": "radioactive pull-down of [35S]-labeled variant on immobilized hPD-L1, normalized to SPAM", "experimental": "(§1) The conservation level for each doped residue in the X₁₇ library was obtained from next-generation sequencing data. […] FIG. 3 discloses SEQ ID NO: 180. […] Each measurement was carried out in triplicate and error bars show the standard deviation of the mean. (Students t-test; p value <0.05 (*), <0.01 (**), <0.005 (***)<0.001 (****))\n[³⁵S]-labeled peptides were translated as described above by including 2 μCi labeled methionine (Perkin Elmer) per 10 pmol of template in the translation reaction. Each peptide was tested with a […] (for X₉-library derived peptides) (SEQ ID NO: 11) or a […] (for X17-library derived peptides) (SEQ ID NO: 12) C-terminal sequence. […] The supernatant was removed and was counted. The beads were subsequently washed three times with 1 mL of blocking buffer and the washes were also counted. Finally, the beads were resuspended in 1 mL of blocking buffer and were counted separately. The ratio of the counts remaining on the beads to the total counts added to the binding reaction (the sum of the counts for supernatant, washes, and beads) was calculated to determine the percent bound."}, "[4]": {"target": "T2, biotinylated hPD-L1 (extracellular …)", "experiment": "radioactive pull-down of [35S]-labeled alanine variant on immobilized hPD-L1, normalized to SPAM", "experimental": "as §1\n[³⁵S]-labeled peptides were translated as described above by including 2 μCi labeled methionine (Perkin Elmer) per 10 pmol of template in the translation reaction. Each peptide was tested with a […] (for X₉-library derived peptides) (SEQ ID NO: 11) or a […] (for X17-library derived peptides) (SEQ ID NO: 12) C-terminal sequence. Binding assays using [35S]-labeled peptide-RNA fusions were similarly performed on hPD-L1 immobilized beads using 75 pmol hPD-L1 immobilized on streptavidin or neutravidin agarose beads (Thermo Fisher scientific) in blocking buffer (20 mM HEPES-KOH pH 7.5, 150 mM NaCl, 0.2% (v/v) Tween-20, 1 mg/mL BSA, 50 μg/mL tRNA and 0.02 mM biotin) at 4° C. for 1 h. The supernatant was removed and was counted."}, "[5]": {"target": "T3, mPD-L1 expressed on CHO cells (CHO-mPD-L1) (mouse, UniProt Q9EP73 19-290)", "T3 construct": "whole, on cells; The construct in the CHO cells is not described", "T3 sequence (Q9EP73 19-290)": "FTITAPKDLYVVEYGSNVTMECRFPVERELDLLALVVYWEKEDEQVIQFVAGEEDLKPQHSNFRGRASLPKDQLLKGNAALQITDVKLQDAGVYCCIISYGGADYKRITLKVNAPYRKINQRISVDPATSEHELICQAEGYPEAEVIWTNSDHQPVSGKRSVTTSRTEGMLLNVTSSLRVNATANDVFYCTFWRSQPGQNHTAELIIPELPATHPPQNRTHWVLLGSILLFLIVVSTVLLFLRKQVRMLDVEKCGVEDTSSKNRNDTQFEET", "experiment": "flow cytometry competition on CHO-mPD-L1 cells: pre-incubation with the peptide, then Fluorescein-16373; % of median fluorescence intensity [cont.) D]", "source_text": "Bars represent means±SD, n=3. One-way ANOVA with Dunnett's multiple comparison's test p value <0.05 (*), <0.01 (**), <0.001 (***).\nCells were then washed three times with cold serum free DMEM. Cells were subsequently processed by flow cytometry with a BD FACSCalibur system using the FL1 channel. FlowJo v10.1 was used to gate to the major population and median FL1 fluorescence reported."}, "[6]": {"target": "T2, biotinylated hPD-L1 (extracellular …)", "experiment": "ELISA/IP: 100 nM biotinylated hPD-L1 on streptavidin magnetic beads, SPAM 0.1, 1, 10 uM; competitor 100 nM HA-tagged mPD-1 detected with anti-HA-HRP", "experimental": "For ELISA/IP assays, 20 μL of MyOne™ Streptavidin T1 magnetic beads Dynabeads™ (Thermo Fisher Scientific) were loaded with 100 nM biotinylated hPD-L1 in assay buffer (20 mM HEPES-KOH pH 7.5, 150 mM NaCl, 0.2% (v/v) Tween-20, 1 mg/mL BSA and 50 μg/mL tRNA) at 4° C. […] The samples were then washed and incubated with a 1:5,000 dilution of HRP conjugated anti-HA antibody (Pierce HA Antibody, Rockford. Ill., USA) for 1 h at 4° C. The beads were washed again and developed with TMB Substrate Kit (Thermo Scientific) for 30 minutes and the reactions stopped by adding 100 μL of […] sulfuric acid."}, "[7]": {"target": "T2, biotinylated hPD-L1 (extracellular …)", "experiment": "SPR (Biacore T-100), biotinylated hPD-L1 on SA chip, mPD-1 0.15-29 uM as analyte, 25 C, one-site saturation fit", "experimental": "SPR analysis was performed on a Biacore T-100 at the USC Nanobiophysics core. […] The response values were fit to a one-site saturation binding model in GraphPad Prism to obtain an equilibrium binding constant."}}, "note": "*1 amine or outer side, *2 acyl side, *3 side chain or, on linkers, in order; H or OH if unused. Where no end group is shown, it is not given here. [ ]: non-standard residue; d: D form. Met(35S) = [35S]-methionine label, C[35S]CC[C@H](N[*:1])C(=O)[*:2]; 35S = [35S]-methionine radiolabel; Pra = C#CC[C@H](N)C(=O)O"}
{"binder": "B1", "values": [{"measurement": "binding result", "setting": "[1]", "value": "no binding"}, {"measurement": "binding result", "setting": "[2]", "value": "no binding"}]}
{"binder": "[Met(35S)]PIFLDHILNKFWILHYGGSGSSGHHHHHHSS", "note": "[SPAM A18 variant (glycine substituted for alanine at position 18)]", "values": [{"measurement": "binding result", "setting": "[3]", "value": "no binding"}]}
{"binder": "B2", "values": [{"measurement": "binding result", "setting": "[4]", "value": "no binding"}]}
{"binder": "B3", "values": [{"measurement": "binding result", "setting": "[4]", "value": "binds"}]}
{"binder": "B4", "values": [{"measurement": "binding result", "setting": "[4]", "value": "no binding"}]}
{"binder": "B5", "values": [{"measurement": "binding result", "setting": "[4]", "value": "no binding"}]}
{"binder": "B6", "values": [{"measurement": "binding result", "setting": "[4]", "value": "no binding"}]}
{"binder": "B7", "values": [{"measurement": "binding result", "setting": "[4]", "value": "binds"}]}
{"binder": "B8", "values": [{"measurement": "binding result", "setting": "[4]", "value": "binds"}]}
{"binder": "B9", "values": [{"measurement": "binding result", "setting": "[4]", "value": "no binding"}]}
{"binder": "B10", "values": [{"measurement": "binding result", "setting": "[4]", "value": "no binding"}]}
{"binder": "B11", "values": [{"measurement": "binding result", "setting": "[4]", "value": "binds"}]}
{"binder": "B12", "values": [{"measurement": "binding result", "setting": "[4]", "value": "binds"}]}
{"binder": "B13", "values": [{"measurement": "binding result", "setting": "[4]", "value": "no binding"}]}
{"binder": "B14", "values": [{"measurement": "binding result", "setting": "[4]", "value": "no binding"}]}
{"binder": "B15", "values": [{"measurement": "binding result", "setting": "[4]", "value": "binds"}]}
{"binder": "B16", "values": [{"measurement": "binding result", "setting": "[4]", "value": "no binding"}]}
{"binder": "MPIFLDHILNKFWILHYASG[Pra]-NH2", "note": "[SPAM peptide (synthetic, MPIFLDHILNKFWILHYASG-Pra)]", "values": [{"measurement": "binding result", "setting": "[5]", "value": "no binding (tested: 10 µM)"}, {"measurement": "IC50", "setting": "[6]", "value": "~1100", "unit": "nM"}]}
{"binder": "B17", "values": [{"measurement": "Kd", "setting": "[7]", "value": 3200, "unit": "nM"}]}
